# Results: paper PMC9529153
# Experiments:
# [1] = system: Glu105; experiment: UV-vis; details: Not stated for the titration. The purification buffer SD contains 150 mM NaCl., Not stated for the titration. The purified protein was in buffer SD: 150 mM NaCl, 50 mM Tris-HCl pH 7.0, 0.02% DDM. The protocol is referred to ref 8., detergent-solubilised, retinal-bound AbHeR WT. Light adaptation is not stated.
# [2] = biological target: AbHeR E151Q (Actinobacteria bacterium IMCC26103); experiment: ITC; AbGS injected into purified AbHeR (WT or mutant) at 25°C, MicroCal ITC200; both in buffer SD (150 mM NaCl, 50 mM Tris-HCl pH 7.0, 0.02% DDM); in the absence of light
# [3] = biological target: Actinobacteria bacterium IMCC26103 heliorhodopsin (AbHeR) wild type (Actinobacteria bacterium IMCC26103); experiment: as above
# Sequence of Actinobacteria bacterium IMCC26103 heliorhodopsin (AbHeR) wild type (Actinobacteria bacterium IMCC26103) (main, as listed by the source): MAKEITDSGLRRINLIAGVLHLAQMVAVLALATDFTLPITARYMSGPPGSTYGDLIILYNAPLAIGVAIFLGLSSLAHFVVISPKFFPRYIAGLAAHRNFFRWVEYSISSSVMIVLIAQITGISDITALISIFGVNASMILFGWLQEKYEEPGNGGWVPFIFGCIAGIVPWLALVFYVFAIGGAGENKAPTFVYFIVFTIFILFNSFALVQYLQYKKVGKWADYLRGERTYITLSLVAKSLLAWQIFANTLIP
# [4] = biological target: AbHeR K216Q (Actinobacteria bacterium IMCC26103); experiment: as above
# [5] = biological target: AbHeR K148Q (Actinobacteria bacterium IMCC26103); experiment: as above
# [6] = biological target: AbHeR D223N (Actinobacteria bacterium IMCC26103); experiment: as above
# [7] = biological target: Actinobacteria bacterium IMCC26103 heliorhodopsin (AbHeR) wild type (Actinobacteria bacterium IMCC26103)
# [8] = biological target: AbHeR K216Q (Actinobacteria bacterium IMCC26103)
# [9] = biological target: Actinobacteria bacterium IMCC26103 heliorhodopsin (AbHeR) wild type (Actinobacteria bacterium IMCC26103); remark: listed apart in the source
# [10] = biological target: Actinobacteria bacterium IMCC26103 heliorhodopsin (AbHeR) wild type (Actinobacteria bacterium IMCC26103); experiment: ITC; purified AbGS with AbHeR in inverted membrane vesicles (IMV) of E. coli C43 (DE3), no detergent; text: IMVs injected into AbGS, legend: AbGS added to IMVs; in the absence of light
Substance,pKa [1],Kd [2] [µM],dH [2] [kcal/mol],Kd [3] [µM],dH [3] [kcal/mol],Kd [4] [µM],Kd [5] [µM],dH [5] [kcal/mol],Kd [6] [µM],dH [6] [kcal/mol],"kcat/Km of AbGS (Glu, Mn2+-supported biosynthetic reaction, 37°C) with AbHeR WT IMV, dark; AbGS alone 5.42 [7] [M⁻¹ s⁻¹]","kcat/Km of AbGS (Glu, Mn2+-supported biosynthetic reaction, 37°C) with AbHeR WT IMV, light (532 nm); AbGS alone 5.42 [7] [M⁻¹ s⁻¹]","kcat/Km of AbGS (Glu, Mn2+-supported biosynthetic reaction, 37°C) with AbHeR K216Q IMV, dark; AbGS alone 5.42 [8] [M⁻¹ s⁻¹]","kcat/Km of AbGS (Glu, Mn2+-supported biosynthetic reaction, 37°C) with AbHeR K216Q IMV, light (532 nm); AbGS alone 5.42 [8] [M⁻¹ s⁻¹]","amount of product (Pi) of the AbGS biosynthetic reaction with AbHeR WT IMV at 150 min, in the absence of light, against AbHeR K216Q IMV [9] [times]","amount of product (Pi) of the AbGS biosynthetic reaction with AbHeR WT IMV at 150 min, in the presence of light against the absence of light [9] [times]","amount of product (Pi) of the AbGS biosynthetic reaction with AbHeR WT IMV at 150 min, in the presence of light, against AbHeR K216Q IMV [9] [times]",Kd [10] [µM]
Heliorhodopsin AbHeR (Actinobacteria bacterium IMCC26103),2.84 (± 1.07),–,–,–,–,–,–,–,–,–,–,–,–,–,–,–,–,–
Actinobacteria bacterium IMCC26103 glutamine synthetase (AbGS) (enzyme),–,30,2.36,100,2.07,3680,137,5.31,44,1.14,8.01,12.2,5.45,6.91,1.09,1.1,1.2,6.06
